The nanobody polyreactivity screen of Harvey et al. (2022)

Test: yeast display, Sf9 membrane polyspecificity reagent, FACS + sequencing; frameworks hold sequencing errors
In short: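 Nanobodies from a synthetic yeast display library (Saccharomyces cerevisiae BJ5465), induced 36–48 hours with galactose, were stained 1 hour at 4 °C with 10% biotinylated, detergent-solubilized Sf9 membrane reagent, enriched on streptavidin microbeads, then FACS-sorted. Anti-HA (expression) and streptavidin (reagent binding) fluorescence set low and high (top ~1%) gates. Polyreactivity labels come from the gate of origin. Genes were colony-PCR amplified, MiSeq 2 × 250 sequenced and filtered by CDR length.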

Sequence | polyreactivity (PSR sort gate)
QVQLVESGGGLVQAGGSLRLSCADSGFIFGYYAMGWYRQAPGKERELVAAINKNGGSTYYADSVKGRFTISRDNAKNTVYLQMNSLKPEDTAVYYCAARARGYAWTFDYWGQGTQVTVSS | high polyreactivity
QVQLEDSGGGLVQAGGSLRLSCAASGRTFRSNVMGWYRQAPGKERELVAAISKRGGSTFSADSVKGRFTISRDNAKNTVYLQMNSLKPEDTEVYYCAKDTPVYDYGTVYPDDYWGQGTQVTVSS | high polyreactivity
QVQLVESGGGLVQAGDSLRLSCAASGLTFSAYVMGWYRQAPGKERELVAATSRRGGTTYYADSVKGRFTISRDNAKITVYLQMNSLKPEDTAVYYCGTDYTSGSSYHVGYCGQGTQVTVSS | high polyreactivity
QVQLVESGGGLVQAGGSLRLSCAASGSIFAYYAMGWYRQAPGKERELVAAITSGDSTYYADSVKGRFTISRDNAKNTVYLQMNSLKPEDTAVYYCAADVSWRSNWYDYWGQGTQVTVSS | low polyreactivity
QVQLVESGGGLVQAGGSLRLSCAASGGTFVYYAMGWYRQAPGKERELVAAITSRGTSTYYADSVKGRFTISRDNAKNTVYLQMNSLKPEDTAVYYCAAGTPRGILRNSSYNYWGQGTQVTVSS | high polyreactivity
QVQLVESGGGLVQAGGSLRLSCAACGSIFPAYAMGWYRQAPGKERELVASITGSGGSTYYADSVKGRFTISRDNAKNTVYLQMNSLKPEDTAVYYCNARYYVYSATVDRYYHFYYWGQGTQVTVSS | high polyreactivity
QVQLVESGGGLVQAGGSLRLSCAASGSTSRINAMGWYRQAPGKERELVAGIRANGGRTYYADSVKGRFTISRDNAKNTVYLQMNSLKPEDTAVYYCNKRNWPAEDSWGQGTQVTVSS | high polyreactivity
QVQLVESGGGLVQAGGSLRLSCAASGSTFLRYTMGWYRQAPGKARELVAAITRSGGSTYYADSVKGRFTISRDTAKNTVYLQMNSLKPEDTAVYYCAKRYRVAYGYWGQGTQVTVSS | high polyreactivity
QVQLVESGGGLVQAGGSLRLSCAASGITFFLYGMGWYRQAPGKERELVAAISWSCASTYADSVKGRFTISRDNAKNTVYLQMNSLKPEDTAVYYCARDDNPIYSGVTYDYWGQGTQVTVSS | low polyreactivity
QVQLVESGGGLVQAGGSLRLSCAASGTFWLYTMGWYRQAPGKERELVAAISLTAGNTYYADSVKGRFTISRDNAKYTVYLQMNSLKPEDTAVYYCAADHYYYTRYEYWGQGTQVTVSS | low polyreactivity
QVQLVESGGGLVQAGGSLRLSCAASGFTFPYYAMGWYRQAPGKERELVAVISRSGGSTYYADSVKGRFTISRDNAKNTVYLQMNSLKPEDTAVYYCAKRYSLTGGKRTGYYWGQGTQVTVSS | high polyreactivity
QVQLVDSGGGLVQAGGSLRLICAASGRIFIYNAMGWYRQAPGKERELVAAITRGGNTNYADSVKGRFTISRDNAKNTVYLQMNSLKPEDTAVYYCAAAIRYGSRHRGYWGQGTQVTVSS | low polyreactivity
QVQLVESGGGLVQAGGSLRLSSAASGRTFWVYAMGCYRQAPGKESELVAAISRSGVSTYYADSVMGRFTISRDNAKNTVYLQMNSLKPEDTAVYYCAAPLIYTPLKYHYWGQGTQVTVSS | low polyreactivity
QVQLVESGAGLVQAGGSLRLSCAPSGRTFWGKVMGWYRQAPGKERELVAAITGRVGSTRYADSVKGRFTISRDNAKNTVFLQMNSLKPEDTAVYYCNADDYELYDYWGQGTQVTVSS | low polyreactivity
QVQLVESGGGLVQAGGSLRLSCAASGRIFQFNFMGWYRQAPGKERELVAAISGSGGSTYADSVKGRFTISRDNAKNTVYLQMNSLKPEDTAVYYCATEYVVYRPRGRLQKFDYWGQGTQVTVSS | low polyreactivity
QVQLVESGGGLVQAGGSLRLSCAASGRIFVYYAMGWYRQAPGKERELVAAITYSVDSTYYADSVKGRFTISRDNAKNTVYLQMNSLKPEDTAVYYCATDVDWAYGYQYEYWGQGTQVTVSS | low polyreactivity

Sequence | polyreactivity (PSR sort gate)
QVKLVESGGGLVQAGGSLRLSCAASGIIFYDYAMGWYRQAPGKERELVAAISSGGDTYYADSVKGRFTISRDNAKNTVYLQMNSLKPEVTAVYYCAAYPPFIYSDPSIWYDYWGQGSQVTVSS | low polyreactivity
QVQLVESGGGLVQAGGSLRLSCAASGSTFAGNAMGWYRQAPGKERELVAAITSGTGTHYADSVKGRFSISRDNAKNTVYLQMNSLKPEDTAVYYCAAEVWSWAGIWGYEYWGQGTQVTVSS | low polyreactivity
QVQLVDSGGGLVQAGGSLRLSCAASGRTFWIYAMGWYRPAPGKERELVAAISRGGSTYADSVKGRFTISRDNAKNTVYLQMNSLKPEDTAVYYCAASTPQYQYYYWGQGTQVTVSS | high polyreactivity
QVQHVESGGGLVQAGGSLRLSCAASGIIFYDYTMGWYRQAPGKERELVAVITNGDTTYYADSVKGRFTISRDNAKNTVYLQMNSLKPEDTAVYYCAADKRPPYILDYWGQGTQVTVSS | high polyreactivity
QVQLVESGGGLVQAGGSLRLSCAASGRTFDAYAMGWYRQAPGKERELVATITSGGGTYYADSVKGRFTISRDNEKNTVYLQMNSLKPEDYAVYYCNKRYVVSRKYDYWGQGTQVTVSS | low polyreactivity
QVQLVQSGGGLVQAGGSLRLSCAASGFTFRFYAMGWYRQATGKERELVASINWSGGRTYYADSVKGRFTISRDNAKNTVYLEMNSLKPVDTAVYYCATQYLIQTKYYSWGQGTQVTVSS | high polyreactivity
QVQLVESGGGLVQAGGSLRLSCAASGRIFWTNAMGWYRQAPGKERELVAAISYNGASTFYADSVKGRFTISRDNAKNTVYLQMNSLKPEDTAVYYCNAYSSRYRYNYWGQGTQVTVSS | high polyreactivity
QVQLVESGGGLVQAGGSLRLSCAASGFTFPNYAMGWYRQAPGKERELVAAITSGGGRTNYADSVKGRFTISRDNAKNTVYLQMNSLKPEDTAVYYCAKTRVRGSEFGYWGQGTQVTVSS | low polyreactivity
QVQLVESGGGLVQAGGSLRLSCAASGSIFRGYAMGWYRQAPGKERELVAGIRGSDGSTYYADSVKGRFTISRDNAKNTVYLQMNSLKPEDTAVYYCAADRRYLDRDKHRYGYWGQGTQVTVSS | low polyreactivity
QVQLVESGGLLVQAGGSLRLSCAASGRIFNYNAMGWYRQAPGKERELVAAIDSGGRTNYADSVKARFTISRDNAKNTGYLQMNSLKPEDTAVYYCNREAAHGSLRWTEMEYWGQGTQVTVSS | low polyreactivity
QVQLVESGGGLVQAGGSLRLSCAASGSTFSYYTMGWYRQAPGKERELVAAITRRGDSTYADSVKGRFTISRDNAKTTVYLQMNSLKPEDTAVYYCAADASVGVSGMDYWGQGSQVTVSS | low polyreactivity
QVQLVESGGGLVQAGGSLRLTCAASGSTFKSYAMGWYRQDPGKERELVAAITVSGGSTYYADSVKGRFTISRDNAKNTVYLMMNSLTPEDTSVYYCAADSVLLKDTGYDYWGQGTQVTVSS | low polyreactivity
QVQLVESGGGLVQAGGSLRLSCAASGIIFPYYAMGWYRQAPGKERELVAAIDWSGTSTYYADSVKGRFTISRDNAKNTVYLQMNSLKPEDTAVYYCAADYPQAGLLYYYWGQGTQVTVSS | low polyreactivity
QVQLVESGGGLVQAGGSLRLSCAASGRILYSYAMGWYRQEPGKERELVAAISSTGSTYYADSVKGRFTISRDNAKNTVYLQMISLKPEDTAVYYCAATFYPYQVHHYYYWGQGTQVTVSS | low polyreactivity
QVQLVESGVGLVQAGGSLRLSCAASGFIFHRNAMGWYRQAPGKERELVASITKRGGNTYYADSVKGRFTISRDNAKNTVYLQMNSLKPEDTAVYYCATHLWGWDWKRDYWGQGTQVTVSS | high polyreactivity
QFQLVESGGGLVQAGGSLRLSCAASGSIFRAYAMGRYRQATGKERELVADISRSGGSTYYADSVKGRFTISRDNAKNTVYLQMNSLTQEVTAVYYCAAVFYLYSNLYGEYDYWGQGTQVTVSS | low polyreactivity
